Experimental data: patent US7597905

Tests used:
[1] = molecular target: HBsAg particles (hepatitis B virus surface antigen L protein particles expressed in recombinant yeast carrying pGLDLIIP39-RcT) (hepatitis B virus); test: Auszyme II EIA kit, S-antigenicity of purified particles
[2] = molecular target: HBsAg (G145R) particles (hepatitis B virus); test: as above

Auszyme II EIA kit (Dainabot Co. Ltd.) (antibody)
S-antigenicity [1]: 1 | S-antigenicity [2]: 0.2
